Reference: the supplement of paper PMC9732359
± gives the uncertainty stated by the source.

Assay: protein stability index of a GFP-peptide fusion (yeast GPS) (PSI 1-4); higher = more stable; sorted into four equal gates, so the index is relative within each strain
Conditions: doa10∆
Summary of the method: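 Mid-log yeast cultures in leucine-free medium, carrying a pooled plasmid library, were sorted into four equal gates by their GFP/Cherry fluorescence ratio. Each plasmid expressed Cherry along with GFP fused upstream of a tiled 17-residue yeast protein peptide. Plasmids recovered from each gate were PCR-amplified and Illumina-sequenced, with reads assigned to strains by barcodes. The protein stability index was obtained by summing each gate's read frequency weighted by its gate number.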

Sequence | protein stability index
SKLSQEFLYPHLNFPNV [SNF12] | 2.88 ± 0.08
SKMLDAASSQVSIVKLD [SNF12] | 2.89 ± 0.086
SKPAFSFGAKSDEKKDG [YJL041W/NSP1] | 3.25 ± 0.17
SKPESSVLQLIVSEDHI [MED1] | 2.14 ± 0.16
SKQDASPKPYAVKYGLN [RPL8A] | 3.3 ± 0.12
SKQDVEALIEFIYDTEK [FAS2] | 3.23 ± 0.1
SKSEFAHRIMLTNILRM [FAS2] | 1.62 ± 0.066
SKYGMLLLRCDDRVDKK [POP3] | 3.34 ± 0.14
SLAATYSMISLQNCCII [ARP9] | 1.47 ± 0.057
SLDMNSMNKELIAIVSK [NUT1] | 1.56 ± 0.19
SLDRVAWRTLVGVSHTN [CYT1] | 1.3 ± 0.053
SLENNIREFPEYFAAQA [RPL10] | 2.3 ± 0.065
SLEQRQEVTKFAKANIG [RPN4] | 2.82 ± 0.15
SLGFLQQSNKLHCCIQL [RPN3] | 2.39 ± 0.06
SLHNTEKIMENKYPELL [AAR2] | 2.94 ± 0.052
SLIENKKAKLVLIANDV [RPL8B] | 2.32 ± 0.13
SLKNDLPQFRSSIQESL [ECM29] | 2.9 ± 0.076
SLLLTNVIITGSTSLIE [ARP7] | 1.54 ± 0.033
SLNNSDSLISGVKQKIT [BRR2] | 2 ± 0.085
SLPEELKKRYDLSYNFN [YMR129W/POM152] | 2.84 ± 0.1
SLPHFPKNSKTPQSKGF [RPO31] | 2.94 ± 0.23
SLQEDVSFDFNGVPGQA [MED8] | 2.41 ± 0.06
SLQSCSVAVHFQYVIDE [SMC4] | 1.82 ± 0.082
SLRSNVVVAETSPEKKD [YAR002W/NUP60] | 2.23 ± 0.05
SLSAYNLTDEGYQWGEE [PRP8] | 3.33 ± 0.22

Sequence | protein stability index
SLSEFARRRQPTDQNNQ [SNF2] | 2.89 ± 0.11
SLSIEENIPVALCKNRK [POP1] | 2.76 ± 0.07
SLTLSFIRHVAKLNYKN [ECM29] | 2.7 ± 0.092
SLVEVVFYRGMTMQVAV [FAS1] | 1.32 ± 0.06
SMERKVQGAAPWDTSLE [MCD1] | 3.5 ± 0.11
SMGSILLSFVLGVVFGR [YML031W/NDC1] | 2.39 ± 0.046
SMKYDNGVIIAADNLGS [PRE4] | 2.66 ± 0.15
SMMSDGIEHFDIPPPAI [RPO31] | 1.97 ± 0.16
SMQTIAETIILSSAGKN [SRB5] | 2.09 ± 0.045
SMSEEFKYVSVRYEEKR [BRR2] | 3.41 ± 0.2
SMVLFFVCLSCSHIFTS [RPB9] | 1.55 ± 0.073
SNEAAKPSFSFPGKPVD [YOR098C/NUP1] | 2.84 ± 0.048
SNFADSADYEILYEIRA [YDL116W/NUP84] | 1.83 ± 0.081
SNGEVLEVGKNNFCALY [RPN14] | 2.34 ± 0.07
SNGPRAAKKRRPAAKGK [RRP6] | 2.97 ± 0.12
SNGSGIVAAGGGSGAAT [CSL4] | 3.53 ± 0.12
SNGVLNVDNQTSDLVKS [RPS17A] | 2.83 ± 0.12
SNIGNNSINNNNIKNGT [YDL088C/ASM4] | 2.72 ± 0.047
SNIPTLIEKLQGFSKDT [YDL116W/NUP84] | 3.22 ± 0.1
SNLEKLLFINSSKLVDV [YML103C/NUP188] | 2.48 ± 0.094
SNMLGSNEDVMMTGAEQ [RPB3] | 3.47 ± 0.22
SNNQVIKMQRQFSQLND [MED6] | 3.01 ± 0.073
SNNSTTNTFGSNSAGTS [YJL041W/NSP1] | 3.08 ± 0.18
SNQAVGQTWNFPEVFQV [SRB8] | 3.11 ± 0.21
SNSALFRAVGEGNAQLV [FAS1] | 2.15 ± 0.11

Sequence | protein stability index
SNSANVSSPESEKNKRQ [ITC1] | 2.93 ± 0.06
SNSNVTNPSSIFGGAGG [YOR098C/NUP1] | 2.89 ± 0.049
SNTDETKGENYQLVKTL [FAS2] | 2.94 ± 0.081
SNTEPIPRSNRHGSVVE [MED1] | 2.23 ± 0.17
SNVYLSLVNSYIIDSPQ [COB] | 1.76 ± 0.047
SPDKIGTFTADYSKPNL [SSN2] | 2.81 ± 0.094
SPELSLQRHLSLGIRPC [RRP43] | 2.54 ± 0.041
SPMLSISNLTQEQVQDY [FAS1] | 2.97 ± 0.058
SPQLTAIIGLKSGTSHD [SNF12] | 1.52 ± 0.067
SPSPILLTSAGCKNGSF [NUT1] | 2.01 ± 0.1
SPTENGVFDPASYSKYL [RPL22B] | 3.18 ± 0.074
SPVQDWNLLRSLYIFFT [YML103C/NUP188] | 2.38 ± 0.079
SPVTGDNSPSEDFMDIP [SNF2] | 3.21 ± 0.12
SQIIARNEEILRDIGEC [SMC2] | 2.79 ± 0.077
SQPFIKFLNFRPPNGIK [SSN2] | 2.65 ± 0.052
SQSACREMALCRELHNK [SSN3] | 2.42 ± 0.089
SQTQLENANAANNGAAF [MED2] | 2.71 ± 0.054
SQVVETHKVTDIYSHEY [YMR129W/POM152] | 2.75 ± 0.083
SRGINKGHKFNNTKAGR [RPL15A] | 3.28 ± 0.29
SRILKAQSRNVEIEKRI [YGR119C/NUP57] | 3.39 ± 0.07
SRKQKIAKTFTVDVSSP [RPL22A] | 2.81 ± 0.08
SRPGQSGRCDGYILEGE [RPS8A] | 3.38 ± 0.19
SRPLKKVKILEQIDENW [SWI3] | 2.94 ± 0.077
SRTDAVRCKDCGHRILL [RPC10] | 2.62 ± 0.16
SRTRAHAQSKREGRHSG [RPL19A] | 2.87 ± 0.076

Sequence | protein stability index
SSAAILGLGIAFAGSKN [RPN1] | 1.35 ± 0.081
SSDALSKEKANFLETIA [SIR4] | 1.49 ± 0.057
SSHLSDNDFIINDFKKI [POP5] | 3.06 ± 0.077
SSKAATPDTKNFFHAKK [SNF12] | 3.12 ± 0.058
SSNASFNNQGKLDLFKY [MED1] | 2.93 ± 0.039
SSNCHVRQKIKTLKRMI [POP1] | 1.41 ± 0.04
SSNIAGTNPLSSDGAYT [SSN2] | 3.04 ± 0.13
SSRTKFWSFLDSLIFKD [YJL039C/NUP192] | 2.78 ± 0.18
SSSANKLLQLFLTPMDS [YML103C/NUP188] | 1.81 ± 0.052
SSTDEESWFKALAGSEI [FAS1] | 3.32 ± 0.12
SSTGNANTSNNLFGATA [YJL041W/NSP1] | 3.44 ± 0.084
SSVKCFGPIKVELPTKE [FAS1] | 2.5 ± 0.069
SSWQIYSDENDPSISNN [RRP4] | 2.48 ± 0.12
STGPTGAVSLNPSITRL [RRP4] | 2.92 ± 0.057
STKFDYPPMPFDGFLFG [FAS1] | 2.56 ± 0.046
STKLSRPFDSFGKLLQA [ITC1] | 2.42 ± 0.054
STKSNKAKNPLTHSTPK [RPL8B] | 2.33 ± 0.069
STQELQTRAKLLDNEIR [RPT5] | 3.2 ± 0.15
STQPSFAWSKPSTGSNL [YGR119C/NUP57] | 2.98 ± 0.054
STSVGWKYEDVVAKLED [RPL16B] | 3.31 ± 0.073
STTFADCPVVPADPDIL [RPC40] | 2.8 ± 0.071
STVKVSDLNLTDRQKKL [YLR018C/POM34] | 2.9 ± 0.063
SVFMPLIFIACNDEDKD [ECM29] | 2.99 ± 0.069
SVFYTILRDYGPQEAAN [RPO31] | 3.42 ± 0.11
